The values below come from patent publication US20090170718, “High-stringency screening of target-binding partners using a microfludic device” (published 2009).

For data set [1], the target named is T1, Botulinum neurotoxin type A light chain (BoNT/A-rLc) (UniProt P0DPI1 P0DPI1:2-448). Briefly: SPR. Particulars: tags: List Biological Laboratories; coupled via amines to Dynabeads M-270 carboxylic acid for selection and bead assays.
Data set [2] concerns the target T1, Botulinum neurotoxin type A light chain …. Briefly: SPR; 20 mM HEPES, 150 mM NaCl, 2 mM KCl, 2 mM MgCl2, 2 mM CaCl2, pH 7.4; […]. As to conditions: tags: List Biological Laboratories; coupled via amines to Dynabeads M-270 carboxylic acid for selection and bead assays. For orientation: Surface plasmon resonance follows binding to a sensor surface in real time, without labels.

In general, Kd refers to a measure of binding affinity in units of concentration.

B1: aptamer b (ssDNA)
DNA: AGCAGCACAGAGGTCAGATGTGGTCTTGTCTTTCATTCCAGGTGGCGAGTCAAATCGATACTGATCCGCTGACACAGGATCCTATGCGTGCTACCGTGAA
In data set [1], B1 came in with a Kd of 86 nM. This lies in the double-digit nanomolar range.

B2: aptamer c (ssDNA)
DNA: AGCAGCACAGAGGTCAGATGCTTGAGTGTCATGGACGTTCCGGTCTTGGGCGGGATATTTGTTTGTTTTCTGCCTATGTTCCTATGCGTGCTACCGTGAA
Molecule B2 displayed a Kd in data set [2] of 34 nM.

B3: aptamer d (ssDNA)
DNA: AGCAGCACAGAGGTCAGATGTCAGATGGCCGGACTCAGGCACTAGACCACTATGCTTCCGTTGCCATTCATCGGCACGTCCTATGCGTGCTACCGTGAA
Consider B3, for which the Kd in data set [1] stood at 53 nM.

B4: aptamer a (ssDNA)
DNA: AGCAGCACAGAGGTCAGATGTCTTTCATACCGAGGTTGATCCAGTAGTATTCTTATCTAATTTGTTTTGTTCGTATGTGCCCTATGCGTGCTACCGTGAA
Molecule B4 came in with a dissociation constant Kd in data set [1] of 65 nM.
